# From PMC7321154, “Pharmacokinetic Properties of ^68Ga-labelled Folic Acid Conjugates: Improvement Using HEHE Tag” (Molecules, 2020)
# Numbered stars: 1 amine (or outer) side, 2 acyl side, 3 side chain; on linkers, the order of the positions; unused ones are H or OH. Peptide text beside a SMILES is read from it. * marks the point of attachment. NODAGA = O=C(O)CN1CCN(CC(=O)O)CCN(C(CCC(=O)*)C(=O)O)CC1; Pteroyl = Nc1nc2ncc(CNc3ccc(C(=O)*)cc3)nc2c(=O)[nH]1; γGlu = O=C(O)[C@H](CCC(=O)[*:2])N[*:1]
# Tests used:
# in vivo [1] = assay: in vivo; parameters: species or system Wistar rats; settings: Wistar, rat, iv, total radioactivity
# Description: Normal biodistribution studies were carried out in healthy Wistar rats. Animals were grouped (N = 5/group) and injected with 10−12 MBq/100 μL of each ^68Ga-NODAGA-folate conjugate into the tail vein. Nonspecific uptake in FR-positive organs (e.g., kidneys) was determined by 5 min of folic acid pre-injection (36 μM, 100 μL) in PBS pH 7.4. At preselected time points of (30, 60, 90, 120 min for rats and 30, 60 min for mice) animals were sacrificed. The organs of interest were collected, blotted dry, weighed, and counted using a WIZARD^2 automatic γ-counter (PerkinElmer). The results are expressed as the percentage of injected activity dose per gram (% ID/g ± SD) for each organ/tissue.
# in vitro = in vitro ADME; settings: human, plasma
# Description: The plasma stability of [^68Ga]Ga-FA-I and [^68Ga]Ga-FA-II was determined in human plasma in vitro.
# in vivo [2] = assay: in vivo; parameters: species or system BALB/c nude mice; settings: female, BALB/c nude, mouse, iv, total radioactivity; for tissue to tissue ratio at 0.5 h / tissue to tissue ratio at 1 h: Differential uptake ratio (DUR)
# Description: For the experimental tumor models athymic female BALB/c nude mice (4−5 weeks old, 18−20 g) were subcutaneously inoculated in the right flank with suspended 2 × 10^6 KB cells (150 μL, Opti-MEM (Gibco, Thermo Fisher Scientific, Waltham, MA, USA) and 50% Matrigel (Becton Dickinson, Franklin Lakes, NJ, USA). Tumors were allowed to grow for 12−16 days (tumor weight 500−900 mg). Animals were grouped (N = 3–5/group) and injected with 10−12 MBq/100 μL of each ^68Ga-NODAGA-folate conjugate into the tail vein. At preselected time points of (30, 60, 90, 120 min for rats and 30, 60 min for mice) animals were sacrificed. The organs of interest were collected, blotted dry, weighed, and counted using a WIZARD^2 automatic γ-counter (PerkinElmer). The results are expressed as the percentage of injected activity dose per gram (% ID/g ± SD) for each organ/tissue.
compound,measurement,setting,value
"Nc1nc2ncc(CNc3ccc(C(=O)N[C@@H](CCC(=O)N[C@@H](CCCCNC(=O)CCC(C(=O)O)N4CCN(CC(=O)O)CCN(CC(=O)O)CC4)C(=O)N[C@@H](Cc4c[nH]cn4)C(=O)N[C@@H](CCC(=O)O)C(=O)N[C@@H](Cc4c[nH]cn4)C(=O)N[C@@H](CCC(=O)O)C(=O)O)C(=O)O)cc3)nc2c(=O)[nH]1 (stereo partly shown) [[^68Ga]Ga-FA-II, metal not drawn] ({Pteroyl-γGlu}-K(NODAGA)HEHE-OH)",tissue uptake at 1 h,in vivo [1],4.27 ± 0.93 %ID/g
same,tissue uptake at 0.5 h,in vivo [1]; accumulation in blood,0.28 ± 0.03 %ID/g
same,tissue uptake at 1 h,in vivo [1]; accumulation in blood,0.22 ± 0.06 %ID/g
same,tissue uptake at 1.5 h,in vivo [1]; accumulation in blood,0.09 ± 0.01 %ID/g
same,tissue uptake at 2 h,in vivo [1]; accumulation in blood,0.06 ± 0.02 %ID/g
same,tissue uptake at 0.5 h,in vivo [1]; accumulation in brain,0.04 ± 0.01 %ID/g
same,tissue uptake at 1 h,in vivo [1]; accumulation in brain,0.02 ± 0.01 %ID/g
same,tissue uptake at 1.5 h,in vivo [1]; accumulation in brain,0.02 ± 0.01 %ID/g
same,tissue uptake at 2 h,in vivo [1]; accumulation in brain,0.01 ± 0.01 %ID/g
same,tissue uptake at 0.5 h,in vivo [1]; accumulation in heart,0.27 ± 0.07 %ID/g
same,tissue uptake at 1 h,in vivo [1]; accumulation in heart,0.16 ± 0.08 %ID/g
same,tissue uptake at 1.5 h,in vivo [1]; accumulation in heart,0.1 ± 0.01 %ID/g
same,tissue uptake at 2 h,in vivo [1]; accumulation in heart,0.08 ± 0.01 %ID/g
same,tissue uptake at 0.5 h,in vivo [1]; accumulation in kidneys,4.03 ± 0.94 %ID/g
same,tissue uptake at 1 h,in vivo [1]; accumulation in kidneys,4.64 ± 1.8 %ID/g
same,tissue uptake at 1.5 h,in vivo [1]; accumulation in kidneys,4.42 ± 1.27 %ID/g
same,tissue uptake at 2 h,in vivo [1]; accumulation in kidneys,4.34 ± 0.18 %ID/g
same,tissue uptake at 0.5 h,in vivo [1]; accumulation in liver,0.18 ± 0.06 %ID/g
same,tissue uptake at 1 h,in vivo [1]; accumulation in liver,0.12 ± 0.06 %ID/g
same,tissue uptake at 1.5 h,in vivo [1]; accumulation in liver,0.07 ± 0.01 %ID/g
same,tissue uptake at 2 h,in vivo [1]; accumulation in liver,0.05 ± 0.01 %ID/g
same,tissue uptake at 0.5 h,in vivo [1]; accumulation in lungs,0.28 ± 0.06 %ID/g
same,tissue uptake at 1 h,in vivo [1]; accumulation in lungs,0.24 ± 0.07 %ID/g
same,tissue uptake at 1.5 h,in vivo [1]; accumulation in lungs,0.12 ± 0.02 %ID/g
same,tissue uptake at 2 h,in vivo [1]; accumulation in lungs,0.11 ± 0.02 %ID/g
same,tissue uptake at 1 h,in vivo [1]; accumulation in muscle,0.06 ± 0.01 %ID/g
same,tissue uptake at 1.5 h,in vivo [1]; accumulation in muscle,0.04 ± 0.01 %ID/g
same,tissue uptake at 2 h,in vivo [1]; accumulation in muscle,0.04 ± 0.01 %ID/g
same,remaining at 3 h,in vitro,> 99%
same,tissue to tissue ratio at 0.5 h,in vivo [2]; Tumor-to-blood,1.6 ± 0.5
same,tissue to tissue ratio at 1 h,in vivo [2]; Tumor-to-blood,6.1 ± 2.5
same,tissue to tissue ratio at 0.5 h,in vivo [2]; Tumor-to-kidneys,0.39 ± 0.18
same,tissue to tissue ratio at 1 h,in vivo [2]; Tumor-to-kidneys,0.79 ± 0.28
same,tissue to tissue ratio at 0.5 h,in vivo [2]; Tumor-to-muscle,7.1 ± 2.8
same,tissue to tissue ratio at 1 h,in vivo [2]; Tumor-to-muscle,28.9 ± 13.7
same,tissue uptake at 0.5 h,in vivo [2]; accumulation in bladder,1.46 ± 0.53 %ID/g
same,tissue uptake at 1 h,in vivo [2]; accumulation in bladder,0.96 ± 0.46 %ID/g
same,tissue uptake at 0.5 h,in vivo [2]; accumulation in brain,0.09 ± 0.03 %ID/g
same,tissue uptake at 1 h,in vivo [2]; accumulation in brain,0.1 ± 0.03 %ID/g
same,tissue uptake at 0.5 h,in vivo [2]; accumulation in intestines,0.46 ± 0.15 %ID/g
same,tissue uptake at 1 h,in vivo [2]; accumulation in intestines,0.45 ± 0.13 %ID/g
same,tissue uptake at 0.5 h,in vivo [2]; accumulation in kidneys,4.47 ± 0.97 %ID/g
same,tissue uptake at 1 h,in vivo [2]; accumulation in kidneys,4.64 ± 0.26 %ID/g
same,tissue uptake at 0.5 h,in vivo [2]; accumulation in liver,0.51 ± 0.13 %ID/g
same,tissue uptake at 1 h,in vivo [2]; accumulation in liver,0.27 ± 0.08 %ID/g
same,tissue uptake at 0.5 h,in vivo [2]; accumulation in muscle,0.24 ± 0.04 %ID/g
